*1 amine or outer side, *2 acyl side, *3 side chain or, on linkers, in order; H or OH if unused. [ ]: non-standard residue; d: D form. F4bcpA = 3-[4-[(S)-2-amino-2-carboxyethyl]phenyl]bicyclo[1.1.1]pentane-1-carboxylic acid, O=C([C@H](Cc1ccc(C23CC(C(=O)[*:3])(C2)C3)cc1)N[*:1])[*:2]; 3AzaPhe4AcPip = (S)-3-(6-(4-acetylpiperazin-1-yl)pyridin-3-yl)-2-aminopropanoic acid, CC(=O)N1CCN(c2ccc(C[C@H](N[*:1])C(=O)[*:2])cn2)CC1; dDabMe3 = [(R)-3-amino-3-carboxypropyl]-trimethylazanium, C[N+](C)(C)CC[C@@H](N[*:1])C(=O)[*:2]; F4pcCCA = (1R,4s)-4-(4-((S)-2-amino-2-carboxyethyl)phenyl)cyclohexane-1-carboxylic acid; Phe(4-(trans-4-COOH-cHex)) = N[C@@H](Cc1ccc([C@H]2CC[C@H](C(=O)O)CC2)cc1)C(=O)O; Pro(trans-4-NH2) = O=C([C@@H]1C[C@@H](N[*:3])CN1[*:1])[*:2]; Trp(βS-Me,4-F) = C[C@@H](c1c[nH]c2cccc(F)c12)[C@H](N)C(=O)O; Bip(4'-COOH) = N[C@@H](Cc1ccc(-c2ccc(C(=O)O)cc2)cc1)C(=O)O; 1Nal(3S-Me) = C[C@@H](c1cccc2ccccc12)[C@H](N)C(=O)O; Ala(indazol-1-yl) = N[C@@H](Cn1ncc2ccccc21)C(=O)O; Phe(4-COOH) = N[C@@H](Cc1ccc(C(=O)O)cc1)C(=O)O; Trp(6-F) = N[C@@H](Cc1c[nH]c2cc(F)ccc12)C(=O)O; Trp(7-Me) = Cc1cccc2c(C[C@H](N)C(=O)O)c[nH]c12; h3Pal(5-CN) = N#Cc1cncc(CC[C@H](N)C(=O)O)c1; αMeNle = CCCC[C@](C)(N[*:1])C(=O)[*:2]; hTyr = N[C@@H](CCc1ccc(O)cc1)C(=O)O; hCha = N[C@@H](CCC1CCCCC1)C(=O)O; 4Pal = N[C@@H](Cc1ccncc1)C(=O)O; Cha = N[C@@H](CC1CCCCC1)C(=O)O; dDab = NCC[C@@H](N)C(=O)O; Orn = NCCC[C@H](N)C(=O)O; dNMeA = CN[C@H](C)C(=O)O
Molecular target: Recombinant human IL-1β (BioLegend 579404) (human, UniProt P01584 117-269)
Assay: cell-based or functional assay

| MRC5 IC50 [nM] | Binder |
| --- | --- |
| 0.022 | cyclo([Phe(4-(trans-4-COOH-cHex))]W[Phe(4-COOH)]G[Pro(trans-4-NH2)][1Nal(3S-Me)]D[dNMeA]G[Bip(4'-COOH)][4Pal]G[dDab][αMeNle]) (SMILES CCCC[C@]1(C)NC(=O)[C@@H](CCN)NC(=O)CNC(=O)[C@H](Cc2ccncc2)NC(=O)[C@H](Cc2ccc(-c3ccc(C(=O)O)cc3)cc2)NC(=O)CNC(=O)[C@@H](C)N(C)C(=O)[C@H](CC(=O)O)NC(=O)[C@H]([C@@H](C)c2cccc3ccccc23)NC(=O)[C@@H]2C[C@@H](N)CN2C(=O)CNC(=O)[C@H](Cc2ccc(C(=O)O)cc2)NC(=O)[C@H](Cc2c[nH]c3ccccc23)NC(=O)[C@H](Cc2ccc([C@H]3CC[C@H](C(=O)O)CC3)cc2)NC1=O) [SEQ ID NO: 195 (Example No. 195)] |
| 0.012 | cyclo([Phe(4-(trans-4-COOH-cHex))][Trp(6-F)][Phe(4-COOH)]G[Pro(trans-4-NH2)][1Nal(3S-Me)]D[dNMeA]G[Bip(4'-COOH)][4Pal]S[dDab][hCha]) (SMILES C[C@@H]1C(=O)NCC(=O)N[C@@H](Cc2ccc(-c3ccc(C(=O)O)cc3)cc2)C(=O)N[C@@H](Cc2ccncc2)C(=O)N[C@@H](CO)C(=O)N[C@H](CCN)C(=O)N[C@@H](CCC2CCCCC2)C(=O)N[C@@H](Cc2ccc([C@H]3CC[C@H](C(=O)O)CC3)cc2)C(=O)N[C@@H](Cc2c[nH]c3cc(F)ccc23)C(=O)N[C@@H](Cc2ccc(C(=O)O)cc2)C(=O)NCC(=O)N2C[C@H](N)C[C@H]2C(=O)N[C@@H]([C@@H](C)c2cccc3ccccc23)C(=O)N[C@@H](CC(=O)O)C(=O)N1C) [SEQ ID NO: 193 (Example No. 193)] |
| 0.009 | cyclo([Bip(4'-COOH)]W[Phe(4-COOH)]G[Pro(trans-4-NH2)][Trp(βS-Me,4-F)]D[dNMeA]G[Bip(4'-COOH)]KL[dK](Ac)[hTyr]) (SMILES CC(=O)NCCCC[C@H]1NC(=O)[C@H](CC(C)C)NC(=O)[C@H](CCCCN)NC(=O)[C@H](Cc2ccc(-c3ccc(C(=O)O)cc3)cc2)NC(=O)CNC(=O)[C@@H](C)N(C)C(=O)[C@H](CC(=O)O)NC(=O)[C@H]([C@@H](C)c2c[nH]c3cccc(F)c23)NC(=O)[C@@H]2C[C@@H](N)CN2C(=O)CNC(=O)[C@H](Cc2ccc(C(=O)O)cc2)NC(=O)[C@H](Cc2c[nH]c3ccccc23)NC(=O)[C@H](Cc2ccc(-c3ccc(C(=O)O)cc3)cc2)NC(=O)[C@H](CCc2ccc(O)cc2)NC1=O) [SEQ ID NO: 187 (Example No. 187)] |
| 0.024 | cyclo([Bip(4'-COOH)][Trp7F][Phe(4-COOH)]G[Pro(trans-4-NH2)][Trp(βS-Me,4-F)]D[dNMeA]G[Bip(4'-COOH)]KL[dA][hTyr]) [SEQ ID NO: 185 (Example No. 185)] |
| 0.013 | cyclo([3AzaPhe4AcPip]W[Phe(4-COOH)]G[Pro(trans-4-NH2)][1Nal(3S-Me)]D[dNMeA]G[Bip(4'-COOH)][Orn]L[dA][hCha]) (SMILES CC(=O)N1CCN(c2ccc(C[C@@H]3NC(=O)[C@H](CCC4CCCCC4)NC(=O)[C@@H](C)NC(=O)[C@H](CC(C)C)NC(=O)[C@H](CCCN)NC(=O)[C@H](Cc4ccc(-c5ccc(C(=O)O)cc5)cc4)NC(=O)CNC(=O)[C@@H](C)N(C)C(=O)[C@H](CC(=O)O)NC(=O)[C@H]([C@@H](C)c4cccc5ccccc45)NC(=O)[C@@H]4C[C@@H](N)CN4C(=O)CNC(=O)[C@H](Cc4ccc(C(=O)O)cc4)NC(=O)[C@H](Cc4c[nH]c5ccccc45)NC3=O)cn2)CC1) [SEQ ID NO: 182 (Example No. 182)] |
| 0.015 | cyclo([Phe(4-(trans-4-COOH-cHex))][Trp(6-F)][Phe(4-COOH)]G[Pro(trans-4-NH2)][1Nal(3S-Me)]D[dNMeA]G[Bip(4'-COOH)][4Pal]S[dDabMe3][hCha]) (SMILES C[C@@H]1C(=O)NCC(=O)N[C@@H](Cc2ccc(-c3ccc(C(=O)O)cc3)cc2)C(=O)N[C@@H](Cc2ccncc2)C(=O)N[C@@H](CO)C(=O)N[C@H](CC[N+](C)(C)C)C(=O)N[C@@H](CCC2CCCCC2)C(=O)N[C@@H](Cc2ccc([C@H]3CC[C@H](C(=O)O)CC3)cc2)C(=O)N[C@@H](Cc2c[nH]c3cc(F)ccc23)C(=O)N[C@@H](Cc2ccc(C(=O)O)cc2)C(=O)NCC(=O)N2C[C@H](N)C[C@H]2C(=O)N[C@@H]([C@@H](C)c2cccc3ccccc23)C(=O)N[C@@H](CC(=O)O)C(=O)N1C) [SEQ ID NO: 194 (Example No. 194)] |
| 0.013 | cyclo([3AzaPhe4AcPip]W[Phe(4-COOH)]G[Pro(trans-4-NH2)][1Nal(3S-Me)]D[dNMeA]G[Bip(4'-COOH)]QL[dA][h3Pal(5-CN)]) (SMILES CC(=O)N1CCN(c2ccc(C[C@@H]3NC(=O)[C@H](CCc4cncc(C#N)c4)NC(=O)[C@@H](C)NC(=O)[C@H](CC(C)C)NC(=O)[C@H](CCC(N)=O)NC(=O)[C@H](Cc4ccc(-c5ccc(C(=O)O)cc5)cc4)NC(=O)CNC(=O)[C@@H](C)N(C)C(=O)[C@H](CC(=O)O)NC(=O)[C@H]([C@@H](C)c4cccc5ccccc45)NC(=O)[C@@H]4C[C@@H](N)CN4C(=O)CNC(=O)[C@H](Cc4ccc(C(=O)O)cc4)NC(=O)[C@H](Cc4c[nH]c5ccccc45)NC3=O)cn2)CC1) [SEQ ID NO: 183 (Example No. 183)] |
| 0.019 | cyclo([F4pcCCA]W[Phe(4-COOH)]G[Pro(trans-4-NH2)][1Nal(3S-Me)]D[dNMeA]G[Bip(4'-COOH)][4Pal]G[dDab][hCha]) [SEQ ID NO: 191 (Example No. 191)] |
| 0.016 | cyclo([F4bcpA]W[Phe(4-COOH)]G[Pro(trans-4-NH2)][1Nal(3S-Me)]D[dNMeA]G[Bip(4'-COOH)][Ala(indazol-1-yl)]G[dDab][hCha]) (SMILES C[C@@H]1C(=O)NCC(=O)N[C@@H](Cc2ccc(-c3ccc(C(=O)O)cc3)cc2)C(=O)N[C@@H](Cn2ncc3ccccc32)C(=O)NCC(=O)N[C@H](CCN)C(=O)N[C@@H](CCC2CCCCC2)C(=O)N[C@@H](Cc2ccc(C34CC(C(=O)O)(C3)C4)cc2)C(=O)N[C@@H](Cc2c[nH]c3ccccc23)C(=O)N[C@@H](Cc2ccc(C(=O)O)cc2)C(=O)NCC(=O)N2C[C@H](N)C[C@H]2C(=O)N[C@@H]([C@@H](C)c2cccc3ccccc23)C(=O)N[C@@H](CC(=O)O)C(=O)N1C) [SEQ ID NO: 188 (Example No. 188)] |
| 0.018 | cyclo([F4bcpA]W[Phe(4-COOH)]G[Pro(trans-4-NH2)][1Nal(3S-Me)]D[dNMeA]G[Bip(4'-COOH)][Cha]G[dDab][hTyr]) (SMILES C[C@@H]1C(=O)NCC(=O)N[C@@H](Cc2ccc(-c3ccc(C(=O)O)cc3)cc2)C(=O)N[C@@H](CC2CCCCC2)C(=O)NCC(=O)N[C@H](CCN)C(=O)N[C@@H](CCc2ccc(O)cc2)C(=O)N[C@@H](Cc2ccc(C34CC(C(=O)O)(C3)C4)cc2)C(=O)N[C@@H](Cc2c[nH]c3ccccc23)C(=O)N[C@@H](Cc2ccc(C(=O)O)cc2)C(=O)NCC(=O)N2C[C@H](N)C[C@H]2C(=O)N[C@@H]([C@@H](C)c2cccc3ccccc23)C(=O)N[C@@H](CC(=O)O)C(=O)N1C) [SEQ ID NO: 190 (Example No. 190)] |
| 0.019 | cyclo([F4bcpA]W[Phe(4-COOH)]G[Pro(trans-4-NH2)][1Nal(3S-Me)]D[dNMeA]G[Bip(4'-COOH)][Cha]G[dDab][hCha]) (SMILES C[C@@H]1C(=O)NCC(=O)N[C@@H](Cc2ccc(-c3ccc(C(=O)O)cc3)cc2)C(=O)N[C@@H](CC2CCCCC2)C(=O)NCC(=O)N[C@H](CCN)C(=O)N[C@@H](CCC2CCCCC2)C(=O)N[C@@H](Cc2ccc(C34CC(C(=O)O)(C3)C4)cc2)C(=O)N[C@@H](Cc2c[nH]c3ccccc23)C(=O)N[C@@H](Cc2ccc(C(=O)O)cc2)C(=O)NCC(=O)N2C[C@H](N)C[C@H]2C(=O)N[C@@H]([C@@H](C)c2cccc3ccccc23)C(=O)N[C@@H](CC(=O)O)C(=O)N1C) [SEQ ID NO: 189 (Example No. 189)] |
| 0.015 | cyclo([Phe(4-(trans-4-COOH-cHex))][Trp(6-F)][Phe(4-COOH)]G[Pro(trans-4-NH2)][1Nal(3S-Me)]D[dNMeA]G[Bip(4'-COOH)][4Pal]G[dDab][hCha]) (SMILES C[C@@H]1C(=O)NCC(=O)N[C@@H](Cc2ccc(-c3ccc(C(=O)O)cc3)cc2)C(=O)N[C@@H](Cc2ccncc2)C(=O)NCC(=O)N[C@H](CCN)C(=O)N[C@@H](CCC2CCCCC2)C(=O)N[C@@H](Cc2ccc([C@H]3CC[C@H](C(=O)O)CC3)cc2)C(=O)N[C@@H](Cc2c[nH]c3cc(F)ccc23)C(=O)N[C@@H](Cc2ccc(C(=O)O)cc2)C(=O)NCC(=O)N2C[C@H](N)C[C@H]2C(=O)N[C@@H]([C@@H](C)c2cccc3ccccc23)C(=O)N[C@@H](CC(=O)O)C(=O)N1C) [SEQ ID NO: 192 (Example No. 192)] |
| 0.018 | cyclo([Bip(4'-COOH)][Trp6Cl][Phe(4-COOH)]G[Pro(trans-4-NH2)][Trp(βS-Me,4-F)]D[dNMeA]G[Bip(4'-COOH)]KL[dA][hTyr]) [SEQ ID NO: 184 (Example No. 184)] |
| 0.038 | cyclo([Bip(4'-COOH)][Trp(7-Me)][Phe(4-COOH)]G[Pro(trans-4-NH2)][Trp(βS-Me,4-F)]D[dNMeA]G[Bip(4'-COOH)]KL[dA][hTyr]) (SMILES Cc1cccc2c(C[C@@H]3NC(=O)[C@H](Cc4ccc(-c5ccc(C(=O)O)cc5)cc4)NC(=O)[C@H](CCc4ccc(O)cc4)NC(=O)[C@@H](C)NC(=O)[C@H](CC(C)C)NC(=O)[C@H](CCCCN)NC(=O)[C@H](Cc4ccc(-c5ccc(C(=O)O)cc5)cc4)NC(=O)CNC(=O)[C@@H](C)N(C)C(=O)[C@H](CC(=O)O)NC(=O)[C@H]([C@@H](C)c4c[nH]c5cccc(F)c45)NC(=O)[C@@H]4C[C@@H](N)CN4C(=O)CNC(=O)[C@H](Cc4ccc(C(=O)O)cc4)NC3=O)c[nH]c12) [SEQ ID NO: 186 (Example No. 186)] |
